Molecular target: T1, recombinant human BOLA1, fluorescently labelled (human, UniProt Q9Y3E2 1-137, NT-647 dye (Monolith NT Protein Labeling Kit RED))
T1 construct: BOLA1, human mitochondrial BolA protein
T1 sequence (looked up): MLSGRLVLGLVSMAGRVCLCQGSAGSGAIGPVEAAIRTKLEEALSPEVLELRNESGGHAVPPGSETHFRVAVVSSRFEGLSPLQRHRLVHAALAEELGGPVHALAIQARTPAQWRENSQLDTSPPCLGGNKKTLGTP
Experiment: MST; 200 nM NT-647 labelled protein titrated with unlabelled protein from 200 µM to 6.1 nM; 50 mM KPi pH 7.4, 150 mM NaCl, 5% glycerol, 0.05 mg/mL BSA, 0.05% Tween20; 21°C; anaerobic
Conditions: both partners purified

B1: human holo-GLRX5 dimer containing the bridging [2Fe-2S] cluster (natural protein, UniProt Q86SX6 32-157, looked up)
chain: AGSGAGGGGSAEQLDALVKKDKVVVFLKGTPEQPQCGFSNAVVQILRLHGVRDYAAYNVLDDPELRQGIKDYSNWPTIPQVYLNGEFVGGCDILLQMHQNGDLVEELKKLGIHSALLDEKKDQDSK
modifications: bridging [2Fe-2S] cluster between two GLRX5 monomers
notes: GLRX5, human mitochondrial monothiol glutaredoxin, chemically reconstituted; also called chemically reconstituted GLRX5; source: chemically reconstituted with Fe-S cluster in an anaerobic chamber
fold affinity against BOLA3: 50 fold
